These results are taken from patent EP1739090A2 (Biogen Idec MA Inc., dated 2007).

Assay [1] deals with T1, IFNAR2/Fc fusion protein (extracellular domain of the human IFNAR2 receptor chain fused to the hinge, CH2 and … (human, UniProt P48551 27-243)).
T1 construct: extracellular domain; Expressed in CHO cells, purified on protein A, captured on plates by mouse anti-human IgG1 mAb CDG5-AA9; also called IFNAR2-ectodomain/Fc fusion protein; IFNAR/Fc; not shown: human IgG1 heavy chain constant region: hinge, CH2 and CH3 domains
T1 sequence (looked up): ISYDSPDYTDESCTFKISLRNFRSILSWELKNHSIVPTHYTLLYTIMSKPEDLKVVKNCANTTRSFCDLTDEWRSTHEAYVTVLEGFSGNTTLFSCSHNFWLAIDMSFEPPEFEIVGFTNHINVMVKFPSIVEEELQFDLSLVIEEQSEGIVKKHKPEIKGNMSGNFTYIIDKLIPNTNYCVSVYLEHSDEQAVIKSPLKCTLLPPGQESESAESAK
The experiment in a line: ELISA on captured IFNAR2/Fc; reference of the assay, EC50 not given.

Assay [2] concerns the target T2, type I interferon cell surface receptor complex (IFNAR1/2 complex) expressed on Daudi Burkitt's lymphoma cells (human, UniProt P17181 28-557; P48551 27-515).
T2 construct: whole, on cells; Endogenous receptor of human Daudi cells; both chains together comprise the receptor for interferon-beta; also called IFNAR1/2 cell surface receptor; cognate receptor on Daudi cells
T2 sequence (looked up) 1: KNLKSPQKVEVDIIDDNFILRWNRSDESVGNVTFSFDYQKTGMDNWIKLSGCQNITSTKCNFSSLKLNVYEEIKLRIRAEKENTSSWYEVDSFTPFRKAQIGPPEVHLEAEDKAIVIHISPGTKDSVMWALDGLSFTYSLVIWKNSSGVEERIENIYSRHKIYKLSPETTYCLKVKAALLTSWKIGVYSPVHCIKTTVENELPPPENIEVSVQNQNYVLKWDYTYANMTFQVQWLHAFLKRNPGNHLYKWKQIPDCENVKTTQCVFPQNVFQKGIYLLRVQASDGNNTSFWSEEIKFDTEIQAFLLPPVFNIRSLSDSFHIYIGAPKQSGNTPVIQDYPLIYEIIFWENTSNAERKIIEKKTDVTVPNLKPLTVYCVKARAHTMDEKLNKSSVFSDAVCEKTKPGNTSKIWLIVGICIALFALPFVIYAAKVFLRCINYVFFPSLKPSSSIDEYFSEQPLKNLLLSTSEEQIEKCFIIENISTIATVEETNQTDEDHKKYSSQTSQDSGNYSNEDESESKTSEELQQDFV
T2 sequence (looked up) 2: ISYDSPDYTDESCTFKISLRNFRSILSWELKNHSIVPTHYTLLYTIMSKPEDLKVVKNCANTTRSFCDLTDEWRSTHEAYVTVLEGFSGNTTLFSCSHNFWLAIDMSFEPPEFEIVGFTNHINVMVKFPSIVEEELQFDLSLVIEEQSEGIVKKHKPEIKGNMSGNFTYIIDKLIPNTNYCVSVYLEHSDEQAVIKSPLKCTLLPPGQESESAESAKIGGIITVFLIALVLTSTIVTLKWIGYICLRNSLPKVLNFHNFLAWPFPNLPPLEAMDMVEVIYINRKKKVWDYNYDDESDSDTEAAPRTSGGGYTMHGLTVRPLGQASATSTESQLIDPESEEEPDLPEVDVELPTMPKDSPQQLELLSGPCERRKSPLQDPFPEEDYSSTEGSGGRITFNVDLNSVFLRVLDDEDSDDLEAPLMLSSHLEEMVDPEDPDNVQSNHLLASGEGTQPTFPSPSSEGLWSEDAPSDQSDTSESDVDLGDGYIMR
Kind of assay: FACS on Daudi cells, inhibition of EA12 staining; reference of the assay, value not given.

Assay [3] deals with T1, IFNAR2/Fc fusion protein (extracellular …). The experiment in a line: ELISA on captured IFNAR2/Fc.
For assay [4] the target is unchanged. Kind of assay: ELISA on IFNAR2/Fc captured by anti-human IgG1 mAb. For orientation: An ELISA detects its analyte on a solid surface through an enzyme-linked reagent.

B1: histidine tagged wild-type interferon-beta-1a (ligand)
chain: SGGHHHHHHSSGDDDDKMSYNLLGFLQRSSNFQCQKLLWQLNGRLEYCLKDRMNFDIPEEIKQLQQFQKEDAALTIYEMLQNIFAIFRQDSSSTGWNETIVENLLANVYHQINHLKTVLEEKLEKEDFTRGKLMSSLHLKRYYGRILHYLKAKEYSHCAWTIVRVEILRNFYFINRLTGYLRN
notes: also called his IFN-beta; His6-tagged
As for B1, the binding result in assay [1] and in assay [2] was “binds” throughout.

B2: his tagged-interferon-beta alanine substitution mutant A2 (ligand)
chain: SGGHHHHHHSSGDDDDKMSYNLLGFLQRSSNAACAALLAALNGRLEYCLKDRMNFDIPEEIKQLQQFQKEDAALTIYEMLQNIFAIFRQDSSSTGWNETIVENLLANVYHQINHLKTVLEEKLEKEDFTRGKLMSSLHLKRYYGRILHYLKAKEYSHCAWTIVRVEILRNFYFINRLTGYLRN
notes: Tested as conditioned medium of EBNA 293 cells
In the case of B2, in assay [3], the “concentration without binding, fold over the w.t. his-IFN-beta EC50” value (shortened to “concentration without binding, fold”) was found to be 500 fold. Besides, in assay [4], the binding result is given as “no binding”.

B3: his tagged-interferon-beta alanine substitution mutant AB1 (ligand)
chain: SGGHHHHHHSSGDDDDKMSYNLLGFLQRSSNFQCQKLLWQLNGRAAACAADRMNFDIPEEIKQLQQFQKEDAALTIYEMLQNIFAIFRQDSSSTGWNETIVENLLANVYHQINHLKTVLEEKLEKEDFTRGKLMSSLHLKRYYGRILHYLKAKEYSHCAWTIVRVEILRNFYFINRLTGYLRN
notes: as for B2
In the case of B3, in assay [3], the “concentration without binding, fold” value was more than 500 fold. In assay [4], the binding result is listed as “no binding”.

B4: his tagged-interferon-beta alanine substitution mutant E (ligand)
chain: SGGHHHHHHSSGDDDDKMSYNLLGFLQRSSNFQCQKLLWQLNGRLEYCLKDRMNFDIPEEIKQLQQFQKEDAALTIYEMLQNIFAIFRQDSSSTGWNETIVENLLANVYHQINHLKTVLEEKLEKEDFTRGKLMSSLHLKRYYGRILHYLKAKEYSHCAWTIVRAEILANFAFIARLTGYLRN
notes: as for B2
For the molecule B4, the “concentration without binding, fold” value in assay [3] was more than 500 fold. Moreover, the binding result in assay [4] is listed as “no binding”.

B5: his tagged-interferon-beta alanine substitution mutant AB2 (ligand)
chain: SGGHHHHHHSSGDDDDKMSYNLLGFLQRSSNFQCQKLLWQLNGRLEYCLKDRAAFAIPAEIKQLQQFQKEDAALTIYEMLQNIFAIFRQDSSSTGWNETIVENLLANVYHQINHLKTVLEEKLEKEDFTRGKLMSSLHLKRYYGRILHYLKAKEYSHCAWTIVRVEILRNFYFINRLTGYLRN
notes: as for B2
Turning to B5, the “concentration without binding, fold” value in assay [3] is more than 500 fold. Besides, the binding result in assay [4] is recorded as “no binding”.
